Measurements taken from a protein production outcome set (Wang et al. 2014).

Assay: label from the status in PepcDB records
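Further: failed if final PepcDB status was selected cloned or expressed and not failed if soluble or beyond.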

Sequence	protein production
MTIIDDGKLKKAITAASLGNAMEWFDFGVYGFVAYALGKVFFPDANPSVQMIAALGTFSVPFLIRPLGGLFFGMLGDKYGRQKILAITIVIMSISTFCIGLIPSYATIGIWAPILLLLCKMAQGFSVGGEYTGASIFVAEYSPDRKRGFMGSWLDFGSIAGFVMGAGVVVLISSVVGEQNFLDWGWRIPFFLALPLGIIGLYLRHALEETPAFQQHVDTMEQGDREGLQDGPKVSFKEIATKHWRSLLTCIGLVISTNVTYYMLLTYMPSYLSHNLHYSEDHGVLIIIAIMVGMLFVQPVIGMLSDRFGRRPFILIGSVALFALSIPAFIMINSNVTGLIFAGLLLLAVVLNCFIGVMASSLPAMFPTHIRFSALASAFNISVLIAGLTPTLAAWLVETTQNLMMPAYYLMVIAVVGMATGLSMKETANRPLKGATPAASDIQEAKEILGEHYDNIEQKIEDIDQEIADLQAKRSRLVQQHPRIND	failed
MTINWIQAAILGLFACLCSNSCMAGQAVGNYTIGRPLVGGLVCGIILGDLKLGIACGVAMQLVYIALVTPGGTVSADVRAISYIGIPLAMVAISTKGLDPLGGSAADLAKSVGTLVGTIGTVLFYSVAALNLVWQSFGWKDIKKGKLDHLYAINFGWPWISHLLFSFLPTVILTYFGATAVTAMRDALPMDGLAMKTLFTVGGMLPCVGIAILLRQIVNKNIDFVPFFVGFTLAASLKLNLVSITIIALLFAVIFYKIALIKNNTKLVDSTGSLTNDDEEEDI	failed
MTIPTISELKKDRIIPHVFPNDKIDLNVDLFISFKAGKEVNHGNVLDIAGTGSVPRNIKFSEEPPDGYCFVLFMVDPDYPSRLRPDGKEYIHWVVSGIKTKELIKGTQKNCVTILPYVGPSIKKGTGLHRISFIISLIKEEDKDNITGLPHYKGEKYITRVKFNNYESVHNIAQINNMKIVGYNWCQIEG	failed
MTIQLTVPTIACEACAEAVTKAVQNEDAQATVQVDLTSKKVTITSALGEEQLRTAIASAGHEVE	not failed
MTISNGDVKSETCNNGSSEKKPFRIFVGYDPREDLAYQVCHHSITKRSSIPVEITPIIQSDLRKKGLYWRERGQLESTEFSFSRFLTPHLSDYQGWAMFVDCDFLYLADIKELTDLIDDKYAIMCVQHDYTPKETTKMDGAVQTVYPRKNWSSMVLYNCGHPKNKTLSPEIVNTQTGAFLHRFQWLEDEEIGSIPFVWNFLEGHNRVVEKDPTTQPKAVHYTRGGPWFDAWKDCEFADLWLNEMEEYNKENKKEADNAK	failed
MTISRTQQIQQLEQEWTSPRWKNITRPYSAEDVIKLRGSVNPECTFAQNGAKKLWELLHGGSRKGYINCLGALTGGQALQQAKAGVEAIYMSGWQVAADANTASSMYPDQSLYPVDSVPAVVKRINNSFRRADQIQWSNNIEPGSKGYTDYFLPIVADAEAGFGGVLNAFELMKAMIEAGAAGVHFEDQLAAVKKCGHMGGKVLVPTQEAIQKLVAARLAADVLGVPTLLIARTDADAADLLTSDCDPYDREFITGDRTAEGFFRTRAGIEQAISRGLAYAPYADLVWCETSTPDLALAKRFADAVHAQFPGKLLAYNCSPSFNWKKNLTDQQIASFQDELSAMGYKYQFITLAGIHSMWFNMFDLAHAYAQGEGMKHYVEKVQQPEFASVDRGYTFASHQQEVGTGYFDKVTNIIQGGASSVTALTGSTEEQQF	not failed
MTISYPAKEFLQTIFKTPYLKNLYLSPTMSIYDTLIGSPATTLKRYLLKSDVAVMYTSPSTYVENEDSSFRFNQNCSPMPPWVLGTKSKTIINTLPPKKSHKRTNTDIIGIHSMTSQNSSGSSYFQLLDLLADLGELIYDDEAMKGFYYEFMNLDNKNAFNNDENLNNLMITFTNLGGASNANESGLKIGATTSGVKTKVDEDIEPLCRHYKCATMDSSFIHWITHWNLLDQVFSSNFVGEGEYYTDPNEVKRILENRDLDTRSKQGKSLYIVDLEGSVRIHVMVNTSLYGMIVLLEVRHITLAKKKNDVDDEREQENEDSS	failed
MTITNSKAEAWELIGNQFWTIGRVAARPSDRENDIFLENIVPGSTVAVIGASTRFLIEKALERGASVTVFDFSQRMCDDLAEALADRCVTIDLLDITAEIPKELAGHFDFVLNDRLINRFTTEEARRACLGMLSLVGSGTVRASVKLGFYDIDLKLIEYGEQSGTLAKFFDPSDKTFHFREAGDVLDRALVPHGLIDKPTLLEWYRRRGKETRFDDEDVRAL	failed
MTIVLIAFALYLLATALLTWAVLRDGNQSPARWLAPALAAVALHAGYHVLVAVRTAGGPDMHFFAALSLCGLGMAALTAVFGGRGRMAAVGVVVFPLSAILLASYHAYGHEPSSDLGWRLELHAWLALLAYATLGIAALLAIMLWLQERALRRRDFHSWLRALPPLTELETLLFRTITVGFVLLSLTLLTGLLFVQDFLAQRLLQKTVLSILSWIVFGALLIGRWRNGWRGTKAVHWTLTAMALLVLSFFGSKFVIELVLGPR	failed
